# Test results from the Immune Epitope Database (IEDB).
# Tests used:
# [1] = target: HLA-A*01:01; assay: IEDB peptide-MHC binding, purified MHC/competitive/fluorescence; ≥ and ≤ were set here for values at or beyond the usual limits of such assays; settings: source organism: Zaire ebolavirus
# [2] = target: HLA-A*03:01; assay: as above; settings: source organism: Zaire ebolavirus
# [3] = target: HLA-A*11:01; assay: as above; settings: source organism: Zaire ebolavirus
# [4] = target: HLA-A*24:02; assay: as above; settings: source organism: Zaire ebolavirus
# [5] = target: HLA-A*02:01; assay: IEDB peptide-MHC binding, purified MHC/competitive/fluorescence; filed as Kd, often an IC50 or EC50 that approximates it; ≥ and ≤ were set here for values at or beyond the usual limits of such assays
# [6] = target: HLA-A*02:03; assay: as above
# [7] = target: HLA-A*02:11; assay: as above
# [8] = target: HLA-A*02:12; assay: as above
# [9] = target: HLA-A*02:16; assay: as above
# [10] = target: HLA-A*02:19; assay: as above
# [11] = target: HLA-A*03:01; assay: as above
# [12] = target: HLA-A*23:01; assay: as above
# [13] = target: HLA-A*24:03; assay: as above
# [14] = target: HLA-A*26:01; assay: as above
# [15] = target: HLA-A*29:02; assay: as above
# [16] = target: HLA-A*68:02; assay: as above; settings: source organism: Vibrio vulnificus CMCP6
# [17] = target: HLA-A*69:01; assay: as above
# [18] = target: HLA-B*15:01; assay: as above
# [19] = target: HLA-B*15:17; assay: as above
# [20] = target: HLA-B*15:42; assay: as above; settings: source organism: Vibrio vulnificus CMCP6
# [21] = target: HLA-B*18:01; assay: as above
# [22] = target: HLA-B*27:03; assay: as above
# [23] = target: HLA-B*39:01; assay: as above
# [24] = target: HLA-B*45:06; assay: as above; settings: source organism: Vibrio vulnificus CMCP6
# [25] = target: HLA-B*46:01; assay: as above
# [26] = target: HLA-B*51:01; assay: as above
# [27] = target: HLA-B*57:01; assay: as above
# [28] = target: HLA-B*83:01; assay: as above; settings: source organism: Vibrio vulnificus CMCP6
# [29] = target: HLA-A*02:06; assay: as above; settings: source organism: Human immunodeficiency virus 1
# [30] = target: HLA-A*26:02; assay: as above; settings: source organism: Human immunodeficiency virus 1
# [31] = target: HLA-C*05:01; assay: IEDB peptide-MHC binding, purified MHC/direct/fluorescence; filed as Kd, often an IC50 or EC50 that approximates it; ≥ and ≤ were set here for values at or beyond the usual limits of such assays; settings: source organism: Salmonella enterica subsp. enterica serovar Typhi str. CT18
# [32] = source organism: Vibrio vulnificus CMCP6
# [33] = source organism: Human immunodeficiency virus 1
# [34] = source organism: Salmonella enterica subsp. enterica serovar Typhi
sequence,measurement,setting,value
ATDVPSATK,IC50,[1],12 µM
same,IC50,[2],28.7 µM
same,IC50,[3],2.14 µM
same,IC50,[4],64.6 µM
LEMNDAPTA,Kd,[5]; [32],≥ 20 µM
same,Kd,[6]; [32],≥ 20 µM
same,Kd,[7]; [32],≥ 20 µM
same,Kd,[8]; [32],≥ 20 µM
same,Kd,[9]; [32],≥ 20 µM
same,Kd,[10]; [32],≥ 20 µM
same,Kd,[11]; [32],≥ 20 µM
same,Kd,[12]; [32],≥ 20 µM
same,Kd,[13]; [32],≥ 20 µM
same,Kd,[14]; [32],≥ 20 µM
same,Kd,[15]; [32],≥ 20 µM
same,Kd,[16],≥ 20 µM
same,Kd,[17]; [32],≥ 20 µM
same,Kd,[18]; [32],≥ 20 µM
same,Kd,[19]; [32],≥ 20 µM
same,Kd,[20],≥ 5 µM
same,Kd,[21]; [32],0.24 µM
same,Kd,[22]; [32],≥ 20 µM
same,Kd,[23]; [32],≥ 20 µM
same,Kd,[24],≥ 5 µM
same,Kd,[25]; [32],≥ 20 µM
same,Kd,[26]; [32],≥ 20 µM
same,Kd,[27]; [32],≥ 20 µM
same,Kd,[28],≥ 5 µM
LFNTIATLY,Kd,[5]; [33],1.07 µM
same,Kd,[6]; [33],≥ 20 µM
same,Kd,[29],1.29 µM
same,Kd,[30],≥ 20 µM
same,Kd,[19]; [33],2.51 µM
NTDEIPELI,Kd,[31],0.114 µM
same,Kd,[5]; [34],≥ 20 µM
same,Kd,[6]; [34],≥ 20 µM
same,Kd,[7]; [34],0.0031 µM
same,Kd,[8]; [34],≥ 20 µM
same,Kd,[9]; [34],≥ 20 µM
same,Kd,[10]; [34],≥ 20 µM
same,Kd,[11]; [34],≥ 20 µM
same,Kd,[12]; [34],≥ 20 µM
same,Kd,[13]; [34],≥ 20 µM
same,Kd,[14]; [34],≥ 20 µM
same,Kd,[15]; [34],≥ 20 µM
same,Kd,[18]; [34],≥ 20 µM
same,Kd,[19]; [34],≥ 20 µM
same,Kd,[21]; [34],≥ 20 µM
same,Kd,[22]; [34],≥ 20 µM
same,Kd,[23]; [34],≥ 20 µM
same,Kd,[25]; [34],≥ 20 µM
same,Kd,[26]; [34],≥ 20 µM
same,Kd,[27]; [34],≥ 20 µM
VVPYEPPEV,Kd,[5]; source organism: Homo sapiens,0.0265 µM
same,Kd,[6]; source organism: Homo sapiens,1.12 µM
same,Kd,[7]; source organism: Homo sapiens,0.0093 µM
same,Kd,[8]; source organism: Homo sapiens,0.161 µM
same,Kd,[17]; source organism: Homo sapiens,≥ 20 µM
